Measurements reported in paper PMC8775132, “Complement-Mediated Selective Tumor Cell Lysis Enabled by Bi-Functional RNA Aptamers”.

Key:
complement C3b = complement C3b (human, UniProt P01024;P01024 23-667;749-1663); assay: EMSA; 250 nM protein; 20 mM HEPES pH 7.4, 150 mM NaCl, 10 mM MgCl2, BSA and yeast RNA 1 ug/20 uL each, 45 min at 37 C; details: protein: native; copies: 1;1; label: 32P
complement iC3b [1] = biological target: T1, complement iC3b (human, UniProt P01024;P01024;P01024 23-667;749-1303;1321-1663); assay: as above; details: protein: native; copies: 1;1;1; label: 32P
T1 sequence (P01024 23-667, chain 1 of 3): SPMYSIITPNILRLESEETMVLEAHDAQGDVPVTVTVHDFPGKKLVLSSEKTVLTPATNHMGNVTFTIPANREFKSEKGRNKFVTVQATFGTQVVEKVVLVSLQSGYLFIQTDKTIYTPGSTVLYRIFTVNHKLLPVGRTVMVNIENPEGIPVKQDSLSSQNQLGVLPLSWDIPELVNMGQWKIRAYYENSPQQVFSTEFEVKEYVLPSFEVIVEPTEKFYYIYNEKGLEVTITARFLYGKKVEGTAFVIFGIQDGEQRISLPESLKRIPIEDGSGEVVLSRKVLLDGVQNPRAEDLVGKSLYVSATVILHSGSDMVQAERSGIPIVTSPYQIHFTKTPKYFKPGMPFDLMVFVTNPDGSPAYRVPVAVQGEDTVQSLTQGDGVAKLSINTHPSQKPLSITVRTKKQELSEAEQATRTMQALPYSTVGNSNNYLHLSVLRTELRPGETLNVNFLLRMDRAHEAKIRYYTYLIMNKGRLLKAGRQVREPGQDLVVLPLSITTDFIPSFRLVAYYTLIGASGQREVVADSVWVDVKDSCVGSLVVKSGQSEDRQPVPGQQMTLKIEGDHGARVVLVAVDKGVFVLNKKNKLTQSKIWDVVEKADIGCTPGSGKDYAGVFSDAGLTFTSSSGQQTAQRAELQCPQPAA
T1 sequence (P01024 749-1303, chain 2 of 3): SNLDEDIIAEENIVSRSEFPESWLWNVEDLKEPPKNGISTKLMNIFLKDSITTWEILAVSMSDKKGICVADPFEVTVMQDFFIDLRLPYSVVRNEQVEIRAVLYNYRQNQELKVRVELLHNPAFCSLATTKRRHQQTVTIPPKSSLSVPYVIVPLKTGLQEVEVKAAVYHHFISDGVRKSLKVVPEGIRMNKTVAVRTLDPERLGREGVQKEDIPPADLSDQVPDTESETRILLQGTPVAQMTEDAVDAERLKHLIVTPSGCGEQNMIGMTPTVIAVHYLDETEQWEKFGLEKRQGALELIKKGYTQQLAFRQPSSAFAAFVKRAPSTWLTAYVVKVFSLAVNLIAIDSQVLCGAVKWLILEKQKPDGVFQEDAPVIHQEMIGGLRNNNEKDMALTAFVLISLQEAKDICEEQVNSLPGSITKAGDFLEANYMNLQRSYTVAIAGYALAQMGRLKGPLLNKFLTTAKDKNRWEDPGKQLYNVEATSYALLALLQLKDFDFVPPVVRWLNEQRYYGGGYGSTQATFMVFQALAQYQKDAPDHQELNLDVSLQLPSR
T1 sequence (P01024 1321-1663, chain 3 of 3): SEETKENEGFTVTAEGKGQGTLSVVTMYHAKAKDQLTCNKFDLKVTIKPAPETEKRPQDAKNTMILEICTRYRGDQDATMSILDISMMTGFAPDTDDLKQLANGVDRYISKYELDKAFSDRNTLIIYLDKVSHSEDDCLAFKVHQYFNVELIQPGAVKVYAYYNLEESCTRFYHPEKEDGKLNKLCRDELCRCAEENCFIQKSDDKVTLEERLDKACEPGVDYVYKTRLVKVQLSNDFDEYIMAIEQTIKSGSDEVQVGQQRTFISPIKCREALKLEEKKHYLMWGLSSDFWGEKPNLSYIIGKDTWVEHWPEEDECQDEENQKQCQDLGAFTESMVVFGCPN

complement C3 = complement C3 (human, UniProt P01024;P01024 23-667;672-1663); assay: filter binding; 20 mM HEPES pH 7.4, 150 mM NaCl, 10 mM MgCl2, BSA and yeast RNA 1 ug/20 uL each, 45 min at 37 C; details: protein: native; copies: 1;1; label: 32P
Chain of complement C3 (P01024 23-667, chain 1 of 2): as the sequence (P01024 23-667, chain 1 of 3) above
Chain of complement C3 (P01024 672-1663, chain 2 of 2): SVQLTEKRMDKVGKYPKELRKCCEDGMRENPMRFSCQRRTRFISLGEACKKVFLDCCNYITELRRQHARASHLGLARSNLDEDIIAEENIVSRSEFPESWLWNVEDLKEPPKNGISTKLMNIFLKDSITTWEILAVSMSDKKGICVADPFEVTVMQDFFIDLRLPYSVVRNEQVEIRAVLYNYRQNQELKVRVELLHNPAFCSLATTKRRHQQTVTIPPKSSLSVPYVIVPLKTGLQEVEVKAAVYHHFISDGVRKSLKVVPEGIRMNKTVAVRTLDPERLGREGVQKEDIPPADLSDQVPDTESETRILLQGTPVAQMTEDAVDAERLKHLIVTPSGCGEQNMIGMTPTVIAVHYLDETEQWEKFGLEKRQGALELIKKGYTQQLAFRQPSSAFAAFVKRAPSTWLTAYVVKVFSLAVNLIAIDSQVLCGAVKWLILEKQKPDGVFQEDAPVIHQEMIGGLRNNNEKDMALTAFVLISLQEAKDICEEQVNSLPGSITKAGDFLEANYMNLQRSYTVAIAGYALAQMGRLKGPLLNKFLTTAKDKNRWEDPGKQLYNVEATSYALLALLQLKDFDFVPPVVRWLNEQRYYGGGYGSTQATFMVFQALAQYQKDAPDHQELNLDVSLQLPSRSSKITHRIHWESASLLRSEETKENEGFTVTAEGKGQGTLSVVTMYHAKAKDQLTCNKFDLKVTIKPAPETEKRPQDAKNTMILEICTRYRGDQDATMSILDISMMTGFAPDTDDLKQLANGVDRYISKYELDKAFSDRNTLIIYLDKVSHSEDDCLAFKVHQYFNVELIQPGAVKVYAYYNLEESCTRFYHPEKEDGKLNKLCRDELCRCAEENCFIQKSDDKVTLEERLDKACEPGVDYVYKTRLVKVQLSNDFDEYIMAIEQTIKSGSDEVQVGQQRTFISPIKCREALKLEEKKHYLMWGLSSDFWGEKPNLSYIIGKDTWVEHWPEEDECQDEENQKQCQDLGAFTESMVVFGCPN

complement iC3b [2] = biological target: T1, complement iC3b; assay: as above; details: protein: native; copies: 1;1;1; label: 32P

Chain of complement C3b (P01024 23-667, chain 1 of 2): as the sequence (P01024 23-667, chain 1 of 3) above
Chain of complement C3b (P01024 749-1663, chain 2 of 2): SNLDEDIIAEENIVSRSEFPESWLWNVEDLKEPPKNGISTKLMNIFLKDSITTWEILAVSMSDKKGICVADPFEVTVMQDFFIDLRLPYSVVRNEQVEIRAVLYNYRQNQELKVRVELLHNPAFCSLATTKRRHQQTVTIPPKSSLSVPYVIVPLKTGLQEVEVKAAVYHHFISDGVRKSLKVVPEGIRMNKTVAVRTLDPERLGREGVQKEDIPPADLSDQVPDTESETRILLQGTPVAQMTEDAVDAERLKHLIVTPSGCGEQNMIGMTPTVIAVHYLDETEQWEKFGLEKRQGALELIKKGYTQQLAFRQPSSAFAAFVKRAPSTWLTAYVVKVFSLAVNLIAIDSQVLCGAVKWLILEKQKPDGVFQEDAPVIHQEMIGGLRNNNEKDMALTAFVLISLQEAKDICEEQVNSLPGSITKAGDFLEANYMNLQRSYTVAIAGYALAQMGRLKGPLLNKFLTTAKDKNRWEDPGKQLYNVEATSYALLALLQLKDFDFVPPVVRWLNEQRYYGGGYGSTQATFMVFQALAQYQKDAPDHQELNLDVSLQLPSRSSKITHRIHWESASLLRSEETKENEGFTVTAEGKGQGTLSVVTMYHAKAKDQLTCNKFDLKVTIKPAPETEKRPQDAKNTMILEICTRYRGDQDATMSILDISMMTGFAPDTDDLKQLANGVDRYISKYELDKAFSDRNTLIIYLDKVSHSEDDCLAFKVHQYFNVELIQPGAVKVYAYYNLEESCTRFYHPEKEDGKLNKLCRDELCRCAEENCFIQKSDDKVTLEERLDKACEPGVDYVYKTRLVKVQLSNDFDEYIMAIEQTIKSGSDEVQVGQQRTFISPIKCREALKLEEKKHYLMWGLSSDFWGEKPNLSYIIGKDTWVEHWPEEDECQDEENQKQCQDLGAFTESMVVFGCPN

B1: AptC3-VI (structured_RNA)
RNA: GGGAGAAUUCAACUGCCAUCUAACCACGUAGUAAUACGGUAUGAUCCAGUUUUAAUUCUAACCAGACUGUUCAGAUGACUACAAGCUUCUGGACUCGGU
modifications: 2'-fluoro pyrimidines
- binding result (complement C3b): binds

B2: AptC3-IV (structured_RNA)
RNA: GGGAGAAUUCAACUGCCAUCUAGUUGCAAAAACAUGAGGAUAGCAAAGUACCAGUGCAACUAACAAGGAAAAGAAGACGGACUACAAGCUUCUGGACUCGGU
modifications: 2'-fluoro pyrimidines
- binding result (complement C3b): binds
- binding result (complement iC3b [1]): binds

B3: AptC3-III (structured_RNA)
RNA: GGGAGAAUUCAACUGCCAUCUACAGCCCCUCGGCCGCGUUCAGCGUCUAACCUUGGGCUGUAUAGAAAGGGUUUCCAGACUACAAGCUUCUGGACUCGGU
modifications: 2'-fluoro pyrimidines
- Kd (complement C3): 17 nM
- Kd (complement iC3b [2]): 14.5 nM
